Data reported in patent US11767359B2, “C3-binding agents and methods of use thereof” (NGM Biopharmaceuticals, Inc., priority 2018, dated 2023).

Legend:
C3c = C3c (Homo sapiens, UniProt P01024); test: Binding profile: binding to C3c; conditions: relative to the binding of the negative control mIgG2 antibody
From the text: (§1) The anti-C3 antibodies described herein were characterized for their ability to bind a number of other components of the complement cascade. Antibodies were screened for binding to C3, C3a, C3b, C3c, C3d, iC3b, and Factor Bb. All the anti-C3 antibodies included in Table 13 were able to block complement activation. The data are relative to the binding of the negative control mIgG2 antibody.

Factor Bb = Factor Bb (Homo sapiens, UniProt P00751); test: Binding profile: binding to Factor Bb; conditions: relative to the binding of the negative control mIgG2 antibody
Sequence of Factor Bb (P00751 260-764 limits assumed): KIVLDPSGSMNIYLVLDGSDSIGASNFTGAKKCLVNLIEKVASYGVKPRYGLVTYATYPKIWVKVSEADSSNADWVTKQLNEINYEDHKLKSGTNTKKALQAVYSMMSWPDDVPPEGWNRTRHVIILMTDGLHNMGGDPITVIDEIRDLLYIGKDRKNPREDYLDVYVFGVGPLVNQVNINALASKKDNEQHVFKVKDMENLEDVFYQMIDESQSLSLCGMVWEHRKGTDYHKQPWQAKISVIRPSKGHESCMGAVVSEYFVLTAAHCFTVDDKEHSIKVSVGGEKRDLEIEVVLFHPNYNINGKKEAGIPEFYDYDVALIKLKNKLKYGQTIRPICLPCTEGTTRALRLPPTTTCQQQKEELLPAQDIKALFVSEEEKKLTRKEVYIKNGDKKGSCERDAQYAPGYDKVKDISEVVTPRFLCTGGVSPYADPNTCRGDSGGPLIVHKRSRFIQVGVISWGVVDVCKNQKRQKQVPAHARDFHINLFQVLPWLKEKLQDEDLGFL
From the text: as §1

iC3b = iC3b (Homo sapiens, UniProt P01024); test: Binding profile: binding to iC3b; conditions: relative to the binding of the negative control mIgG2 antibody
Sequence of iC3b (P01024 23-667 limits assumed): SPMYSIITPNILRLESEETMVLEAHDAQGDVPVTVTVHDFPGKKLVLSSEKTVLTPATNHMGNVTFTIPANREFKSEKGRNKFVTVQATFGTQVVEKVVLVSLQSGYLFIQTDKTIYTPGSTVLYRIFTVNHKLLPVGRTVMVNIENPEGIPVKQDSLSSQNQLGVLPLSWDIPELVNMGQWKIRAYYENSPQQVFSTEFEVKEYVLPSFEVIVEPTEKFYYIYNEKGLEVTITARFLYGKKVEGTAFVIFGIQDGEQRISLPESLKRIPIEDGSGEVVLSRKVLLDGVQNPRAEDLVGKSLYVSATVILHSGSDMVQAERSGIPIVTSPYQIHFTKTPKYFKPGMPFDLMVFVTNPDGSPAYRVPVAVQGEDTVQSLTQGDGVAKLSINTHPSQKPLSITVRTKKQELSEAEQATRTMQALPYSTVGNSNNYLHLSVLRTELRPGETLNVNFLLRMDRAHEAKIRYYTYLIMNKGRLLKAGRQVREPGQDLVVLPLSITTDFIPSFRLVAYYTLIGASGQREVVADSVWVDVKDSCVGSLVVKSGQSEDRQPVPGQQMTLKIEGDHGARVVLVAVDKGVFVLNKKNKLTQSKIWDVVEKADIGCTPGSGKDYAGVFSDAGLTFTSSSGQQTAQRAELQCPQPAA
Sequence of iC3b (P01024 749-1303 limits assumed): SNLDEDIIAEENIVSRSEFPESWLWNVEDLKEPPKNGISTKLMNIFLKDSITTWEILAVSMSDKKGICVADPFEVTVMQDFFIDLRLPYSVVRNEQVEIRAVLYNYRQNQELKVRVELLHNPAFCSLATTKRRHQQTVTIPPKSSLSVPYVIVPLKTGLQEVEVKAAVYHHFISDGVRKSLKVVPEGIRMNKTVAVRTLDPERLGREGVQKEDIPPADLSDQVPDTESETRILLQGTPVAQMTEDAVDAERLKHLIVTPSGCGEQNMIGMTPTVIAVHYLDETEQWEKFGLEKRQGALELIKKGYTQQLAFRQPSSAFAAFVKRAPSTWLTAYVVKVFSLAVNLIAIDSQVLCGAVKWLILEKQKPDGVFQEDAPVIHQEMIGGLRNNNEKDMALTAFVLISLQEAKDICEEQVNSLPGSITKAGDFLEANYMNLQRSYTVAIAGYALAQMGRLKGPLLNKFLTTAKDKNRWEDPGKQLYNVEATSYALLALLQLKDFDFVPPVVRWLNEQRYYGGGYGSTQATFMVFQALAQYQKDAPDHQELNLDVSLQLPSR
Sequence of iC3b (P01024 1321-1663 limits assumed): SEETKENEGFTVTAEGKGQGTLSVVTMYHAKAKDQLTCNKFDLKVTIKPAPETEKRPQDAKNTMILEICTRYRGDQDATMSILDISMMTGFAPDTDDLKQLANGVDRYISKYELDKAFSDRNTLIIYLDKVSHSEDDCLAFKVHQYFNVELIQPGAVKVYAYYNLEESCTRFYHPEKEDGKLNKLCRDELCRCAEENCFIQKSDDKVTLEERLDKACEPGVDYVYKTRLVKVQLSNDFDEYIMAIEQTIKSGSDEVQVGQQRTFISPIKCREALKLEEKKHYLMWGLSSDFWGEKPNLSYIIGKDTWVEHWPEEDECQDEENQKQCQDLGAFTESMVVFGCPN
From the text: as §1

C3b = C3b (Homo sapiens, UniProt P01024); test: Binding profile: binding to C3b; conditions: relative to the binding of the negative control mIgG2 antibody
Sequence of C3b (P01024 23-667 limits assumed): as the sequence (P01024 23-667 limits assumed) above
Sequence of C3b (P01024 749-1663 limits assumed): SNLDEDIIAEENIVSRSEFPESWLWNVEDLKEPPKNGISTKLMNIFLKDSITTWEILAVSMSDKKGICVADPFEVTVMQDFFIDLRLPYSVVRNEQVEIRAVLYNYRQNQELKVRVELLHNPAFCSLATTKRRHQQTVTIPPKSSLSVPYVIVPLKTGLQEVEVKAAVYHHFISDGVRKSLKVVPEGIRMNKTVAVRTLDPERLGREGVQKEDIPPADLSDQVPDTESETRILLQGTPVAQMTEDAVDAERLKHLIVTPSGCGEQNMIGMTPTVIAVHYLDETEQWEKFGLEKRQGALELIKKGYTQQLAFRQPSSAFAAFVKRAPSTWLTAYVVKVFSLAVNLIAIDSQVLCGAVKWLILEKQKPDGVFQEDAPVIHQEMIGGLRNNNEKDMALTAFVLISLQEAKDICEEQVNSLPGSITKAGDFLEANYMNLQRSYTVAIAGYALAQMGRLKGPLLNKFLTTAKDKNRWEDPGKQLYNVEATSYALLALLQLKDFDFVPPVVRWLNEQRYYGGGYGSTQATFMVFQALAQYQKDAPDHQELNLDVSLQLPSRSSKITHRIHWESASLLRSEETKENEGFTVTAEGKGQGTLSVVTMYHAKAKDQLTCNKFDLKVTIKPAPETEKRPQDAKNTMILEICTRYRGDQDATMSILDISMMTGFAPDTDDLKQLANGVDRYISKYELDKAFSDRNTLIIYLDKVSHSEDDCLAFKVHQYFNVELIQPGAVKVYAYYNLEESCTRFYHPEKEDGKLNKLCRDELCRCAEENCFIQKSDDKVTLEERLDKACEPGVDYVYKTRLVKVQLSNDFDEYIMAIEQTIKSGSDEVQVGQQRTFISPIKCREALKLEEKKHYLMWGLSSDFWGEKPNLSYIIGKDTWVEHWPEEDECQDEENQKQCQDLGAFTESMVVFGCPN
From the text: as §1

C3 [1] = target: T1, C3 (Homo sapiens, UniProt P01024); test: Binding profile: binding to C3; conditions: summary in words of Table 13
T1 sequence (P01024 23-1663): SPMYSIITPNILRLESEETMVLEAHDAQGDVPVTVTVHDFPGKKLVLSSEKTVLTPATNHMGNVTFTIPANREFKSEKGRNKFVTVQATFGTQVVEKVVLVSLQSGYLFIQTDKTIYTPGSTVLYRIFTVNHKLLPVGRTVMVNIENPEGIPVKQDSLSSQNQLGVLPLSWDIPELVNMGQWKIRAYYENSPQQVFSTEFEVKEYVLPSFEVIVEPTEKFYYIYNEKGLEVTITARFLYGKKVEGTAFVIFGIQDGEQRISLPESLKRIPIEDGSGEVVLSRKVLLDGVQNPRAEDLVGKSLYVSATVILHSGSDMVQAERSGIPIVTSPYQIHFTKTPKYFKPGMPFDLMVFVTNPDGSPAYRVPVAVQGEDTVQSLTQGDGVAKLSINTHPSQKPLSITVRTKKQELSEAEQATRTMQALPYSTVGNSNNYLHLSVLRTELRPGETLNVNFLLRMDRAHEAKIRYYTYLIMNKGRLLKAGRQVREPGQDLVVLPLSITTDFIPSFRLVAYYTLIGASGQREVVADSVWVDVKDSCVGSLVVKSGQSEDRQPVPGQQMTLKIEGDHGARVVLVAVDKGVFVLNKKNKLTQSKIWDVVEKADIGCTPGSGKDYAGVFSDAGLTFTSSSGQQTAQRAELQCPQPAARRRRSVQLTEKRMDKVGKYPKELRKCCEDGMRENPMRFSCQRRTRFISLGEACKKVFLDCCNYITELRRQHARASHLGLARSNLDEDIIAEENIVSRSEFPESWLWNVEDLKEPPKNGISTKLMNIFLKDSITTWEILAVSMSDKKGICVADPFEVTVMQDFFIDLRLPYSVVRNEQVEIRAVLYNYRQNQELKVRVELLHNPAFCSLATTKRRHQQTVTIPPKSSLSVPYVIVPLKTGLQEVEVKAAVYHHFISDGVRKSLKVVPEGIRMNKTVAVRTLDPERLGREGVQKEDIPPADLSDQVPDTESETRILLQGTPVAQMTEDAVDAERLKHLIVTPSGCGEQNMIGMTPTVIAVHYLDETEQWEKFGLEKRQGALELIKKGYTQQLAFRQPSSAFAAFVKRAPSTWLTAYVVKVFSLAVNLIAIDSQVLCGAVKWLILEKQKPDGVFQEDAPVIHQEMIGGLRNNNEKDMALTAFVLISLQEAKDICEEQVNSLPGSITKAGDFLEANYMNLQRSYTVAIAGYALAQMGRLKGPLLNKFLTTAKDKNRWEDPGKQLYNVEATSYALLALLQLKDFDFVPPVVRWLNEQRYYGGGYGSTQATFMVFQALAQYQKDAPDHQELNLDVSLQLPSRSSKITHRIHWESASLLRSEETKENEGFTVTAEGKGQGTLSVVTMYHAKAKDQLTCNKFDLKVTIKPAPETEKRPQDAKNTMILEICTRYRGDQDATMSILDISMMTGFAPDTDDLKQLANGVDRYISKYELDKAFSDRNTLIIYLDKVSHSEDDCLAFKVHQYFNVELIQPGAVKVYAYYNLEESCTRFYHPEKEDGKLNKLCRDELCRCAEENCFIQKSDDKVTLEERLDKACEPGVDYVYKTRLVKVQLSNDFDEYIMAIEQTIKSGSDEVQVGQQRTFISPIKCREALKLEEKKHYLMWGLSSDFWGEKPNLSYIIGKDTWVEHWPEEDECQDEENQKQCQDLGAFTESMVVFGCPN
From the text: as §1

[2] = Solubility of Hz38G10 dsscFv by micro-concentration; type: physicochemical; conditions: 10 mM sodium phosphate, 40 mM sodium chloride, 0.03% polysorbate 20, 5% sucrose, pH 6.2
Procedure: The purified antibodies were dialyzed into buffer consisting of 10 mM sodium phosphate, 40 mM sodium chloride, 0.03% polysorbate 20, and 5% sucrose, pH 6.2. The solution was micro-concentrated using 10,000 Da NMWCO spin concentrator at 3,000×g at room temperature. Protein concentration was measured on an Agilent Cary 60 UV-VIS Solo VPE spectrophotometer.

C3 [3] = target: T1, C3; test: Binding affinity by Biacore, human C3
Procedure: The binding affinities of exemplary anti-C3 antibodies to human C3 and cyno C3 were measured using a Biacore system (GE Healthcare LifeSciences). Briefly, anti-Fc antibody (Sigma-Aldrich) was immobilized on all four flow cells of a CM5 chip using amine coupling reagents (GE Healthcare LifeSciences). Antibodies were captured on flow cells 2, 3, and 4 using flow cell 1 as a reference. Concentrations ranging from 0.62-40 nM of human C3 or cyno C3 were injected at a flow rate of 50 μL/min at 37° C. Kinetic data were collected over time and fit using the simultaneous global fit equation to yield affinity constants (KD values) for each antibody.
More recently, a number of compstatin analogs and derivatives have been generated and studied. […] A Biacore system was used to assess the binding affinities of the different molecules to human C3. […] Evaluation of COMP or COMP-PEG binding to human C3 was carried out as follows. Human C3 was immobilized on flow cell 2 of a CM5 chip using amine-coupling reagents (GE Healthcare LifeSciences) and flow cell 1 (immobilized with a similar amount of human IgG) was used as a reference. […] Similar experiments were set up with COMP-PEG (concentration range of 25-400 nM) for evaluation at 37° C. COMP-PEG binding to human C3 was also evaluated at 25° C. with modifications. […]

[4] = Elevated pH stress test, deamidation at N55 of heavy chain CDR2; type: physicochemical

Sequence of C3c (P01024 23-667 limits assumed): as the sequence (P01024 23-667 limits assumed) above
Sequence of C3c (P01024 749-954 limits assumed): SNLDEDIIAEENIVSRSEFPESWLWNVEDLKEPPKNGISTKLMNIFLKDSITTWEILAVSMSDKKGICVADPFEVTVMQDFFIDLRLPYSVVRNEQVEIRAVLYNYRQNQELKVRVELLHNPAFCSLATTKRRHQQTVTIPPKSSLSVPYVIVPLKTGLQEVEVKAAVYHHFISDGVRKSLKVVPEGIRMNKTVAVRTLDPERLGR
Sequence of C3c (P01024 1321-1663 limits assumed): as the sequence (P01024 1321-1663 limits assumed) above

| Molecule | binding to C3c (C3c) | binding to Factor Bb (Factor Bb) | binding to iC3b (iC3b) | other results |
| --- | --- | --- | --- | --- |
| 3G8: mouse anti-C3 monoclonal antibody; VH SEQ ID NO:93, VL SEQ ID NO:94 (antibody, V domains shown) VH: EIQLQQSGAELVKPGASVKISCMASGYSFTGYNMNWVKQSHGKGLEWIGNINPYYDSTSYNQKFKGKATLTVDKSSSTAYMQLNSLTSEDSAVYYCARENYDFVGFAYWGQGTLVTVSA VL: QIVLSQSPAILSASPGEKVTMTCRASSSVSYMHWFQQKPGSSPKPWIYVTSNLASGVPPRFSGSGSGTSYSLTISRVEAEDAATYYCQQWSTNPLTFGAGTKLELK | 0.22 |  | 0.25 |  |
| Hz38G10 dsscFv: VL-linker-VH disulfide-linked scFv of Hz38G10, SEQ ID NO:113 (protein) scFv: MDIQMTQSPSSLSASVGDRVTITCKASENVDTYVSWYQQKPGKAPKLLIYGASNRYTGVPSRFSGSGSGTDFTFTISSLQPEDIATYHCGQSHSYPLTFGCGTKLEIKGGGGSGGGGSGGGGSQVQLVQSGAEVKKPGASVKVSCKASGYTFTDFYMDWVRQAPGQCLEWMGYIYPHNGGTTYNQQFTGRVTITVDKSASTAYMELSSLRSEDTAVYYCARRGGFDFDYWGQGTLVTVSS |  |  |  | protein concentration reached with no visible aggregation [2]: 229 mg/mL |
| 3D8: mouse anti-C3 monoclonal antibody; VH SEQ ID NO:91, VL SEQ ID NO:92 (antibody, V domains shown) VH: EIQLQQSGAELVKPGASVKISCKASGYSFTGYNMNWVKQSHGKSLEWIGNINPYYGSTNYNQKFKGKATLTVDKSSTTAYMQLDSLTSEDSAVYYCARGYYGGNYPFAYWGQGTLVTVSA VL: DIQMTQSPASLSASVGETVTITCRASENIYSYLAWYQQKQGKSPQLLVYNAKTLAEGVPSRFSGSGSGTQFSLKINSLQPEDFGSYYCQHYYGTPYTFGGGSKVEIK | 0.17 |  | 0.29 |  |
| Hz38G10(N55D): Hz38G10 variant with N55D mutation in heavy chain CDR2, mimics a fully deamidated molecule (antibody, V domains shown) VH: QVQLVQSGAEVKKPGASVKVSCKASGYTFTDFYMDWVRQAPGQRLEWMGYIYPHDGGTTYNQQFTGRVTITVDKSASTAYMELSSLRSEDTAVYYCARRGGFDFDYWGQGTLVTVSS VL: DIQMTQSPSSLSASVGDRVTITCKASENVDTYVSWYQQKPGKAPKLLIYGASNRYTGVPSRFSGSGSGTDFTFTISSLQPEDIATYHCGQSHSYPLTFGQGTKLEIK |  |  |  | binding to human C3 as compared to Hz38G10 (C3 [3]): reduced binding |
| Hz38G10 (G56A): Hz38G10 variant with G56A mutation in heavy chain CDR2; VH SEQ ID NO:21, VL SEQ ID NO:25 (antibody, V domains shown) VH: QVQLVQSGAEVKKPGASVKVSCKASGYTFTDFYMDWVRQAPGQRLEWMGYIYPHNAGTTYNQQFTGRVTITVDKSASTAYMELSSLRSEDTAVYYCARRGGFDFDYWGQGTLVTVSS VL: DIQMTQSPSSLSASVGDRVTITCKASENVDTYVSWYQQKPGKAPKLLIYGASNRYTGVPSRFSGSGSGTDFTFTISSLQPEDIATYHCGQSHSYPLTFGQGTKLEIK |  |  |  | deamidation at the asparagine N55, Day 0 ([4]; pH 8.5, Day 0): 0.66%; deamidation at the asparagine N55, Day 7 ([4]; pH 8.5, Day 7): 1.0% |

Continued, in another order:

| binding to C3c (C3c) | binding to Factor Bb (Factor Bb) | binding to iC3b (iC3b) | Molecule | other results |
| --- | --- | --- | --- | --- |
| 0.28 | 0.00 |  | 28C3: mouse anti-C3 monoclonal antibody; VH SEQ ID NO:99, VL SEQ ID NO:100 (antibody, V domains shown) VH: QVQLQQSGPELVKPGASVKISCKASGYAFNSCWMNWVKQRPGKGLEWIGRIYPGDGDTNYNGKFKGKATLTADKSSTTAYMQLSSLTSEDSAVYFCAREGRNYGYEDYWGQGTTLTVSS VL: DIVLTQSPASLAVSLGQRATISCKASQSVDYDGDSYMNWYQQKPGQPPKLLIYAASDLESGIPARFSGSGSGTDFTLNIHPVEEEDAATYYCQQANEDPRTFGGGTKLEIK |  |
| 0.13 |  | 0.06 | 38G10: mouse anti-C3 monoclonal antibody; VH SEQ ID NO:18, VL SEQ ID NO:19 (antibody, V domains shown) VH: EVQLQQSGPELVKPGDSVKMSCKASGYTFTDFYMDWVKQSHGKSLEWIGYIYPHNGGTTYNQNFTGKATLTVDKSSNTAYMELHSLTSEDSAVYYCARRGGFDFDYWGQGTTLTVSS VL: NIVMTQSPKSMSLSVGERVTLRCKASENVDTYVSWYQQKPEQSPKLLIYGASNRYTGVPDRFTGSGSATEFTLTISSVQAEDLVGYHCGQSHSYPLTFGAGTKLELK | binding to C3b (C3b): 0.06; C3 binding profile (C3 versus fragments of the complement cascade) (C3 [1]): bound preferentially to C3 with no detectable or very limited binding to any of the fragments of the complement cascade |
| 0.55 | 0.00 | 0.72 | 63A3: mouse anti-C3 monoclonal antibody; VH SEQ ID NO:107, VL SEQ ID NO:108 (antibody, V domains shown) VH: DVQLQESGPGLVKPSQSLSLTCSVTGYSITSGYYWNWIRQFPGNKLEWMGYIRYDGSNNYNPSLKNRISITRDTSKNQVFLKLNSVTPEDTATYYCARHYGYDGGAFDFWGQGTTLTVSS VL: DIQMTQSPASLSASVGETVTITCRTSENIYNYLVWYQQKQGKSPQLLVYNAKTLEEGVPSRFSGSGSGTQFSLKVNSLQPEDFGSYYCQHHYGTPFTFGSGTKLEIK |  |
| 0.43 | 0.00 | 0.49 | 62F2: mouse anti-C3 monoclonal antibody; VH SEQ ID NO:105, VL SEQ ID NO:106 (antibody, V domains shown) VH: DVQLQESGPDLVKPSQSLSLTCTVTGYSITSGYSLHWIRQFPGNKLEWMGYIHYSGSTNYNPSLKSRISITRDTSKNQFFLKLNSVTSEDTATYHCARAWDYLDYWGQGTTLTVSS VL: DIQMTQSPASLSASVGETVTITCRASENIYSQLAWYQQKQGKSPQLLVYDAKTLAEGVPSRFSGSGSDTQFSLKIISLQPEDFGRYYCHHHFGILYTFGGGTKLEMK |  |
| 0.45 |  | 0.45 | 38F5: mouse anti-C3 monoclonal antibody; VH SEQ ID NO:101, VL SEQ ID NO:102 (antibody, V domains shown) VH: EVMLVESGGALVKPGGSLKLSCTASGFTFSNYAMSWVRQTPEKRLEWVAQTISSGGRYTYYPDSVKGRFTISRDNARNTLYLQMSSLRSEDTAMYYCVRRYYGNSYWYFDVWGAGTTVTVSS VL: DIVMTQSPSSLSVSAGEKVTMNCKSSQSLLNSGNQKHYLTWYQQKPGQPPKLLIYGASTRGSGVPDRFTGSGSGTDFTLTISSVQAEDLAVYYCQNDHSYPYTFGGGTKLEIK |  |
